Measured values from US10106582B2, “Complex-formation-modulating agents and uses therefor” (Factor Therapeutics Limited, priority 2012, dated 2018).

Columns and labels:
IGFBP-3 = target: T1, IGFBP-3 (Homo sapiens, UniProt P17936); assay: VN-peptide array: binding of IGFBP-3 to immobilized overlapping 16-mer VN peptides; settings: spot stronger than negative controls = positive hit
T1 construct: purchased GroPep
From the text: (§1) The inventors designed small-molecule VN-peptides that could potentially disrupt the formation of the IGF-I:IGFBP:VN trimeric or the IGF-II:VN dimeric complexes by binding to the IGFBPs and/or IGF-II and preventing their association with VN within the complex. To design peptides, the binding sites of IGFBP-3/-5 and IGF-II on VN were first determined using VN-peptide arrays. The entire VN protein sequence, excluding the signal peptide (residues 1-19), was divided into overlapping 16-mer peptides with 3AA frameshift/offset (for peptide sequences refer to Table 6) and immobilized onto cellulose membranes (peptide spotting was outsourced to PepMetric Technologies Inc). For a schematic of the arrangement of VN peptides and controls refer to FIG. 2. The resultant peptide arrays were incubated either with IGFBP-3, IGFBP-5 or IGF-II ligands, probed with the respective antibodies, the membranes developed using ECL, and imaged using the ChemiDoc™ XRS system (BioRad). The spots on the membrane were analysed using TotalLab array quantification software (TotalLab Ltd, Newcastle, England) identifying positive peptide spots by comparing each spot to the combined intensities of the negative controls.
(§2) The entire VN protein sequence, excluding the signal peptide (residues 1-19), was divided into overlapping 16-mer peptides with 3 amino acid (AA) frameshift/offset. This yielded 148 overlapping peptides covering the entire VN sequence (residues 20-478) (Table 6) with a resolution of 3 AA. Peptide synthesis and spotting onto a cellulose membrane were outsourced to PepMetric Technologies Inc. (Richmond, BC, Canada). For a diagrammatic illustration of the strategy used to divide an example amino acid sequence into peptides and to spot them onto the membrane, please refer to http://www.pepmetric.com/html/Pep-Overlap.html. The VN-overlapping peptides were generated using FMOC (9-fluorenylmethoxycarbonyl) Solid-Phase SPOT synthesis onto PEG-grafted amine-functionalized cellulose membrane (Whatman® 540 filter paper). The peptides were spotted onto the cellulose membrane in a 10×16 grid with each peptide being 10˜50 nM in concentration with >70% purity. Finally, these membranes were acetylated in order to cap the free ends of the spotted peptides preventing them from degradation during shipping and storage.
(§3) Along with the VN-peptides these membranes were also spotted with a positive control (i.e., universal binding peptides tested by the manufacturer to be positive for antibodies from goat, mouse, rat and chicken) and a negative control (ie. non-binding peptides as well as BSA) controls. For a schematic of the arrangement of VN-peptides and controls refer to FIG. 2 and for the sequence of each peptide corresponding to the grid number refer to Table 6. Four such replicate membranes were prepared and stored at room temperature in a clip sealed plastic bag. Long-term storage was at −20° C.
(§4) Methanol or ethanol was used to enhance the rehydration of peptide spots that might be hydrophobic. The peptides spotted onto the membranes were activated by incubating in 3 mL of 70% ethanol for five mins. The membranes were subsequently washed three times, 10 minutes each, in 10 mL TBS (Tris Buffered Saline; 8 g NaCl, 0.2 g KCl and 6.1 g Tris Base into 1000 mL of milliQ water, pH 7) with gentle rocking. Membrane blocking was performed by incubating in 10 mL casein-based membrane blocking buffer (MBS; Sigma-Aldrich) overnight at 4° C. The following day, the membranes were washed twice, 10 minutes each, in 10 mL TBS-T (TBS+0.05% Tween-20; pH 7).
(§5) Ligands used to test binding to VN-peptides were IGFBP-3, IGFBP-5 and IGF-II. For ligand binding, four separate solutions of 1 μg/mL ligand in 10 mL MBS buffer were prepared and each membrane was incubated in one of the four ligand solutions overnight at 4° C., with gentle rocking. […] The following day, the membranes were washed three times, 10 minutes each, in 10 mL TBS-T. […]

MCF-7 cells = assay: Transwell migration assay, IGF-I+IGFBP-3+VN (TRI)-stimulated MCF-7 cell migration; type: cell-based, human
Protocol: FIG. 6 is a graphical representation showing MCF-7 cell migration in response to VN peptides. MCF-7 cells were seeded onto the upper-surface of a Transwell inserts coated on the under-surface with treatments containing IGF-I+IGFBP-3+VN (TRI; 10 nM) with or without increasing concentrations of either peptide P7, P8 or Pneg. Migration was assessed after 15 hours. Data is represented as percentage of change in migration compared to the TRI only control. Error bars indicate standard error mean.
This assay has been repeated three times with treatments tested in triplicate wells in each replicate experiment.
The breast cancer epithelial cell line MCF-7 was used for this assay. Migration was assessed by measuring relative number of cells migrating through 8-μm pore Transwell membranes in response to substrate-bond proteins complexes. IGFBP-3 was allowed to bind either peptide P7, P8 or a combination of P7 and P8 for 2 hours. IGF-I was later added to this protein mix which was then added to Transwells pre-coated with VN. Post-overnight incubation, unbound proteins were removed, Transwells washed twice and cells seeded onto the upper chamber. Cells migrated to the under-surface over 15 hours were indirectly quantified using crystal violet staining.

IGF-II = target: T2, IGF-II (Homo sapiens, UniProt P01344); assay: VN-peptide array: binding of IGF-II to immobilized overlapping 16-mer VN peptides; settings: spot stronger than negative controls = positive hit
T2 construct: purchased GroPep
T2 sequence (P01344 25-91 limits assumed): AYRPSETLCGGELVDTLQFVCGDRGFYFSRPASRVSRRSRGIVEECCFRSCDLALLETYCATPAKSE
From the text: as §1, §2, §3, §4, §5

IGFBP-5 = target: T3, IGFBP-5 (Homo sapiens, UniProt P24593); assay: VN-peptide array: binding of IGFBP-5 to immobilized overlapping 16-mer VN peptides; settings: spot stronger than negative controls = positive hit
T3 construct: purchased GroPep
T3 sequence (P24593 21-272): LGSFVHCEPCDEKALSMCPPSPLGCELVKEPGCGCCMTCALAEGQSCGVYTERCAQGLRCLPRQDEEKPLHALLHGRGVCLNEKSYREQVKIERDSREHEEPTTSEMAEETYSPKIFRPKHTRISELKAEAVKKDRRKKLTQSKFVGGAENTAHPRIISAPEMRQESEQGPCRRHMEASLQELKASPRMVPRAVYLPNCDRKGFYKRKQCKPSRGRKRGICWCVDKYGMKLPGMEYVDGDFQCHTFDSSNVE
From the text: as §1
The entire VN protein sequence, excluding the signal peptide (residues 1-19), was divided into overlapping 16-mer peptides with 3 amino acid (AA) frameshift/offset. […]

[1] = increasing peptide concentrations added to TRI (IGF-I+IGFBP-3+VN; 10 nM), 15 hours

T1 sequence (P17936 28-291): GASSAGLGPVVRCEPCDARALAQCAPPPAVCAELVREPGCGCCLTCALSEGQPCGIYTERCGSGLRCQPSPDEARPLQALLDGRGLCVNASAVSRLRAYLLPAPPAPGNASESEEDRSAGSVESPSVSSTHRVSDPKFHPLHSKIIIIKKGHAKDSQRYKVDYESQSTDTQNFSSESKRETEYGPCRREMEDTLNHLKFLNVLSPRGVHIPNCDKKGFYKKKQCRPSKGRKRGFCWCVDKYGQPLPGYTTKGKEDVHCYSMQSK

KTYLFKGSQYWRFEDG [Neg, reference compound]
Binding of IGFBP-3 on VN-peptide array (positive spot or not) (IGFBP-3): did not show any binding | Inhibition of TRI-stimulated MCF-7 cell migration (MCF-7 cells; [1]): no inhibition of cell migration was observed | Binding of IGF-II on VN-peptide array (positive spot or not) (IGF-II): did not show any binding | Binding of IGFBP-5 on VN-peptide array (positive spot or not) (IGFBP-5): did not show any binding

LFSSEESNLGANNYDDYRMDWL (listed as Homo sapiens) [Peptide P7, human VN motif 7 mimic]
Binding of IGFBP-3 on VN-peptide array (positive spot or not) (IGFBP-3): does not bind | Inhibition of TRI-stimulated MCF-7 cell migration (MCF-7 cells; 30 nM peptide dose, TRI 10 nM, 15 hours (most significant inhibition)): returned to the ‘VN only’ treatment levels | Inhibition of TRI-stimulated MCF-7 cell migration (MCF-7 cells; [1]): dose dependent inhibition | Binding of IGF-II on VN-peptide array (positive spot or not) (IGF-II): binds | Binding of IGFBP-5 on VN-peptide array (positive spot or not) (IGFBP-5): does not bind
